Measured values from patent US20120094909A1 (Bristol-Myers Squibb, published 2012).

Columns and labels:
[1] = target: T1, human PCSK9 (proprotein convertase subtilisin kexin type 9) (human, UniProt Q8NBP7 31-692); experiment: cell-based or functional assay
[2] = target: T1, human PCSK9 (proprotein convertase …); experiment: PCSK9:EGFA FRET, competitor EGFA peptide
[3] = target: T2, human PCSK9 (proprotein convertase subtilisin kexin type 9) (human, UniProt Q8NBP7 31-692); experiment: FRET, competitor EGFA peptide
T2 construct: Directly immobilized (SPR ProteOn), biotinylated (BLI), or in solution, depending on the assay; also called hPCSK9
Text: (§1) Table 11 summarizes the overall data from these three FRET assays.

cynomolgus monkey PCSK9 = cynomolgus monkey PCSK9 (cynomolgus monkey, UniProt A0A7N9D9N8 150-747); experiment: FRET, competitor EGFA peptide
Text: as §1

Row | Binder | LDLR Depletion (% inhibition at 75 nM) [1] | EC50 [2] | LDLR Depletion EC50 [1] | IC50 [3] | IC50 (cynomolgus monkey PCSK9)
1 | 2451A10 (designed binder) MGVTDVPRDMEVVAATPTSLLISWQPPAVTYGYYRITYGETGGNSTLQQFTVPVYKGTATISGLKPGVDYTITVYAVEYPYDHSGYYHRPISINYRTEIDKPSQHHHHHH | 53.7% | 10.9 nM | – | – | –
2 | 2451C11 (designed binder) MGIVDVPRDLEVVAATPTSLLISWDPPAGAYGYYRITYGETGGNSPKQQFTVPGYKGTATISGLKPGVDYTITVYAVEYPYDHSGYYHRPISINYRTEIDKPSQHHHHHH | 70.3% | 9.7 nM | – | – | –
3 | 1922G04(R25D) (designed binder) MGVSDVPRDLEVVAATPTSLLISWDPPSHAYGYYRITYGETGGNSPVQEFTVPIGKGTATISGLKPGVDYTITVYAVEYPWKGSGYYHRPISINYRTGSGSHHHHHH | – | 2.5 nM | 29 nM | – | –
4 | 1922G04(R25D) (designed binder, Anti-PCSK9 Adnectin, GSGS-His6 tail; the entry already carries the substitution) MGVSDVPRDLEVVAATPTSLLISWDPPSHAYGYYRITYGETGGNSPVQEFTVPIGKGTATISGLKPGVDYTITVYAVEYPWKGSGYYHRPISINYRTGSGSHHHHHH | – | – | – | 2.5 nM | 48.1 nM
5 | 1922G04(R25E) (designed binder) MGVSDVPRDLEVVAATPTSLLISWEPPSHAYGYYRITYGETGGNSPVQEFTVPIGKGTATISGLKPGVDYTITVYAVEYPWKGSGYYHRPISINYRTGSGSHHHHHH | – | 3.5 nM | 29 nM | – | –
6 | 1922G04(R25E) (designed binder, Anti-PCSK9 Adnectin, GSGS-His6 tail; the entry already carries the substitution) MGVSDVPRDLEVVAATPTSLLISWEPPSHAYGYYRITYGETGGNSPVQEFTVPIGKGTATISGLKPGVDYTITVYAVEYPWKGSGYYHRPISINYRTGSGSHHHHHH | – | – | – | 3.5 nM | 58.5 nM
7 | 2381G06 (designed binder) MGVSDVPRDLEVVAATPTSLLISWSEKLDGKARRGYYRITYGETGGNSPVQQFTVPGSKGTATISGLKPGVDYTITVYAVEFPYDHSGYYHRPISINYRTEIDKPSQHHHHHH | 57.7% | 9 nM | – | – | –
8 | 2381H01 (designed binder) MGVSDVPRDLEVVAATPTSLLISWSPRDSTGLVRRGYYRITYGETGGNSPVQQFTVPGSKGTATISGLKPGVDYTITVYAVEYPYDHSGYYHRPISINYRTEIDKPSQHHHHHH | 22.2% | 4 nM | – | – | –
9 | 2451B05 (designed binder) MGVSDVPRDLEVVAATPTSLLISWDAPAGGYGYYRITYGETGGNSPVQEFTVPSSKGTATISGLKPGVDYTITVYAVEFDYPGSGYYHRPISINYRTEIDKPSQHHHHHH | 91.7% | 6.3 nM | – | – | –
10 | 2451G01 (designed binder) MGVSDVPRDLEVVAATPTSLLISWDAPAGGYGYYRITYGETGGNSPVQEFTVPSSKGTATISGLKPGVDYTITVYAVEFDFPGSGYYHRPISINYRTEIDKPSQHHHHHH | 90.8% | 3.8 nM | – | – | –
11 | 2451F03 (designed binder) MGVSDVPRDLEVVAATPTSLLISWDPPAEGYGYYRITYGETGGNSPVQEFTVPVSKGTATISGLKPGVDYTITVYAVEFNFPGSGYYHRPISINYRTEIDKPSQHHHHHH | 113% | 2.8 nM | – | – | –
12 | 2451H01 (designed binder) MGVSDVPRDLEVVAATPTSLLISWDAPAAGYGYYRITYGETGGNSPVQEFTVPVSKGTATISGLKPGVDYTITVYAVEYDFPGSGYYHRPISINYRTEIDKPSQHHHHHH | 95.8% | 2.8 nM | – | – | –
13 | 2451D05 (designed binder) MGVSDVPRDLEVVAATPTSLLISWDAPAGAYGYYRITYGETGGNSPVQEFTVPVSKGTATISGLKPGVDYTITVYAVEFDFPGSGYYHRPISINYRTEIDKPSQHHHHHH | 115% | 2.8 nM | – | – | –
14 | 2382G03 (designed binder) MGVSDVPRDLEVVAATPTSLLISWDAPAEAEAYGYYRITYGETGGNSPVQEFTVPVSKGTATISGLKPGVDYTITVYAVEYVFPGAGYYHRPISINYRTEIDKPSQHHHHHH | 77.8% | 2.7 nM | – | – | –
15 | 2381H06 (designed binder) MGVSDVPRDLEVVAATPTSLLISWGDVRTNEARQGYYRITYGETGGNSPLQGFTVPGSKGTATISGLKPGVDYTITVYAVEYTYEHSGYYHRPISINYRTEIDKPSQHHHHHH | 53.4% | 5 nM | – | – | –
16 | 2381A08 (designed binder) MGVSDVPRDLEVVAATPTSLLISWDAPADGGYGYYRITYGETGGNSPVQEFTVPGSKGTATISGLKPGVDYTITVYAVEYDFPGAGYYHRPISINYRTEIDKPSQHHHHHH | 91.4% | 3.6 nM | – | – | –
17 | 2382H04 (designed binder) MGVSDVPRDLEVVAATPTSLLISWDAPAAGGYGYYRITYGETGGNSPVQEFTVPSSKGTATISGLKPGVDYTITVYAVEYDFPGAGYYHRPISINYRTEIDKPSQHHHHHH | 68.2% | 3.2 nM | – | – | –
18 | 2382F03 (designed binder) MGVSDVPRDLEVVAATPTSLLISWDAPAADAYGYYRITYGETGGNSPVQEFTVPVSKGTATISGLKPGVDYTITVYAVEFNFPGAGYYHRPISINYRTEIDKPSQHHHHHH | 88.6% | 2.7 nM | – | – | –
19 | 2382A01 (designed binder) MGVSDVPRDLEVVAATPTSLLISWAAPAGGGYGYYRITYGETGGNSPVQEFTVPVSKGTATISGLKPGVDYTITVYAVEYDFPGAGYYHRPISINYRTEIDKPSQHHHHHH | 120% | 12.9 nM | – | – | –
20 | 2382E04 (designed binder) MGVSDVPRDLEVVAATPTSLLISWDAPAGGGYGYYRITYGETGGNSPVQEFTVPVSKGTATISGLKPGVDYTITVYAVEFTFPGAGYYHRPISINYRTEIDKPSQHHHHHH | 61.5% | 3 nM | – | – | –
21 | 2381C08 (designed binder) MGVSDVPRDLEVVAATPTSLLISWDAPADGAYGYYRITYGETGGNSPVQEFTVPVSKGTATISGLKPGVDYTITVYAVEFPYPFAGYYHRPISINYRTEIDKPSQHHHHHH | 15.3% | 0.7 nM | – | – | –
22 | 2381B10 (designed binder) MGVSDVPRDLEVVAATPTSLLISWDAPAGGGYGYYRITYGETGGNSPVQEFTVPVSKGTATISGLKPGVDYTITVYAVEYNFIGAGYYHRPISINYRTEIDKPSQHHHHHH | 96.4% | 7.3 nM | – | – | –
23 | 2382F02 (designed binder) MGVSDVPRDLEVVAATPTSLLISWDAPAGGGYGYYRITYGETGGNSPVQEFTVPVSKGTATISGLKPGVDYTITVYAVEFDFPGSGYYHRPISINYRTEIDKPSQHHHHHH | -6.3% | 2.6 nM | – | – | –
24 | 2381D02 (designed binder) MGVSDVPRDLEVVAATPTSLLISWEPFSRLPGGGEYYRITYGETGGNSPLQQFTVPGSKGTATISGLKPGVDYTITVYAVEYPYDHSGYYHRPISINYRTEIDKPSQHHHHHH | 185% | 3.1 nM | – | – | –
25 | 2381G03 (designed binder) MGVSDVPRDLEVVAATPTSLLISWEPFSRLPGGGEYYRITYGETGGNSPLQQFTVPGSKGTATISGLKPGVDYTITVYAVEFPYAHSGYYHRPISINYRTEIDKPSQHHHHHH | 70.2% | 3.4 nM | – | – | –
26 | 2381A04 (designed binder) MGVSDVPRDLEVVAATPTSLLISWEPFSRLPGGGEYYRITYGETGGNSPLQQFTVPGSKGTATISGLKPGVDYTITVYAVEYPYPFSGYYHRPISINYRTEIDKPSQHHHHHH | 100% | 3.3 nM | – | – | –
27 | 2381H03 (designed binder) MGVSDVPRDLEVVAATPTSLLISWEPFSRLPGGGEYYRITYGETGGNSPLQQFTVPGSKGTATISGLKPGVDYTITVYAVEYPYAHSGYFHRPISINYRTEIDKPSQHHHHHH | 89.8% | 3.4 nM | – | – | –
28 | 2381B06 (designed binder) MGVSDVPRDLEVVAATPTSLLISWEPFSRLPGGGEYYRITYGETGGNSPLQQFTVPGSKGTATISGLKPGVDYTITVYAVEYPYPHSGYYHRPISINYRTEIDKPSQHHHHHH | 120% | 3.5 nM | – | – | –
